{"source": "patent US7005283B2", "about": "“Cytochrome P450 oxygenases and their uses” (Washington State University Research Foundation, priority 1999, dated 2006)", "molecules": {"B1": {"name": "clone F10: Taxus cuspidata cytochrome P450, outlying full-length clone, SEQ ID NO: 55 (nt) / 68 (aa) (protein, listed as Taxus cuspidata)", "chain": "MAFEAATVILFTLAALLLVVIQRRRIRRHKLQGKVKAPQPPSWPVIGNLHLLTQKVPIHRILSSLSESYGPIMHLQLGLRPALVIASSDLAKECFTTNDKAFASRPRLSAGKHVGYDYKIFSMAPYGSYWRNLRKMCTIQILSATRIDSFRHIRVEEVSALIRSLFDSCQREDTPVNMKARLSDLTFSIILRMVANKKLSGPVYSEEYEEADHFNQMIKQSVFLLGAFEVGDFLPFLKWLDLQGFIAAMKKLQQKRDVFMQKLVIDHREKRGRVDANAQDLIDVLISATDNHEIQSDSNDDVVKATALTMLNAGTDTSSVTIEWALAALMQHPHILSKAQQELDTHIGRSRLLEEADLHELKYLQAIVKETLRLYPAAPLLVPHEAIEDCTVGGYHVSAGTRLIVNAWAIHRDPAVWERPTVFDPERFLKSGKEVDVKGREFELIPFGSGRRMCPGMSLALSVVTYTLGRLLQSFEWSVPEGMIIDMTEGLGLTMPKAVPLETIIKPRLPFHLY"}, "B2": {"name": "clone F23: Taxus cuspidata cytochrome P450 oxygenase, full-length clone, SEQ ID NO: 84 (nt) / 90 (aa) (protein, listed as Taxus cuspidata)", "chain": "MELWNMFLPWISIATATSLTVGMASAFAIIYAPLLLSFLRLKTARRNMPPIPPGSMGMPFWGESLGYLGSWNNQSNPDVWYDTRKAKHGKIFTTHILGSPTVVMLGPDANRFILINENKLFLNSWPKSLNALIGKHALITSQGAEHKRMRRIIHSVLGPRNPETSVGRFEGLVLHHLDSDWHGGQIIQAYRQVKDMALCLAADFFMGLKPGKELETFRRHFSDFSAGLLSHPLDLPWTVFGKAKRARAAMVTQIFSQIRLHRTSMHKSGEEGGNFLDMVLGSQEKGGDLRLSEEEIADNLMGLLTGGQDTTASALATILKHLSLSPHLLQRLRKECEKLRDNKEAGGPLTWSEIKSVGYLHNVISEGLRMVAPINGGFKKAKVDVVYGGYTIPKGWKVHYSVRQTNNKEEYFPSPERFDPDRFNERHEPFSFIPFGQGNRMCPGNEFARLEMELFLYHLVLRYDWELMEADERTNMYFIPHPVHSLPLLLKHVPPT"}, "B3": {"name": "clone F42: Taxus cuspidata cytochrome P450 oxygenase, full-length clone, SEQ ID NO: 45 (nt) / 58 (aa) (protein, listed as Taxus cuspidata)", "chain": "MDSFSFLKSMEAKFGQVIHRDQSSSTALLSLAFTAAVAIFLVLLFRFKSRPSTNFPPGNFGFPFIGETIQFLRALRSESPHMFFDERLKKFGRVFKTSLTGHPTAVFCGPAGNRFIYSNEHKLVQSSGPNSFVKLVGQQSIVTKTGEEHRIFLGVLNEFLGPHALQSYTPKMSSKIQENINKHWKGKDEVNMLPSIRQLVFSISSSLFFDINDEDQQEQLKTLLETILVGTLSVPLDIPGSNFRKALRARSKLDEILSRLIESRRKDMRSGIASTSKNLLSVLLAFKDERGNPLTDTEILDNFSFMLHASYDTTVSPTVCIFKLLSANPECYEKVVQEQLGILGNKKDGEEMCWNDLKAMKYTWQAAQETMRLFPPAFGSFRKVIADIHHDGYIIPKGWKAMVTNYSTSRKEEYFDEPDNFKPSRFGDGKYVAPYTFLPFGAGIRICPGWEFAKLEMLLFIHHFVKNFSGYLPLDTKEKISGDPFPPLPKNGFPIKLFPRT"}, "B4": {"name": "clone F19: Taxus cuspidata cytochrome P450 oxygenase, full-length clone, SEQ ID NO: 50 (nt) / 63 (aa) (protein, listed as Taxus cuspidata)", "chain": "MDAFNILKGPAAKLNGVVQLGSYTDRILSITVVAFITILLLLMLRWKSQSSVKLPPGNFGFPLIGETLQLLRAFRSNTTQQFFDERQKKFGCVFKTSLVGERTVVLCGPSGNRLVLANQNKVVESSWPSAFIKLIGEDSIANTNGEKHRILRAALLRYLGPGSLQNYVGKMRSEIEHHINEKWKGKDEVKVLDLVRKNVFSVATALFFGVNDEERKRIRPPSILRKLHFAGSFSIPLDFPGTSYRRALEARLKLDKILSSLIERRRSDLRSGLASGNEDLVSVLLTFKDEGGNPLTDKEILDNFSGLLHASYDTTTSALTLTFKLMSSSAECYDKVVQEQLRIVSNKKEGEEISLKDLKDMKYTWQVVQETLRMFPPLFGSFRKTIADIQYDGYTIPKGWKVLWATYTTHGRDEYFSEPQKFRPSRFEEGGKHVAPYTFLPFEGGERTCPGYEFSKTHILLFIHQFVKTFTGYIPLDPNESISANPLPPLPANGFPVKLFQRS"}, "B5": {"name": "clone F55: Taxus cuspidata cytochrome P450 oxygenase, full-length clone, SEQ ID NO: 52 (nt) / 65 (aa) (protein, listed as Taxus cuspidata)", "chain": "METKFGQLMQLEFLPFILTPILGALVLLHLFRHRNRSSVKLPPGKLGFPVIGETIQFLRALRSQTPQKFFDDRVQKFGGVFKTSLIGNPLVVMCGPAGNRLVLSNEDKLVQLEAPNSLMKLMGQDSLLAKRQEDHRTLRAALARFLGPQALXNYMTKISSRTEHHMNEKWKGKDEVRTLPLIRELIFSNASSLFFDINDEHQQERLHHLLEAVVVGSMSIPLDFPGTRLRKALQARSKLDEILSSLIKSRRKDLVSGIASDDQDLLSVLLTFKDERGNPLTDKEILDNFSLLLHASYDTTVSPMVLTLKLLSSNPECYEKVVQEQLGIVANKRIGEEISWKDLKAMKYTWQVVQETLRMFPPLFGSFRKAMVDIDYDGYTIPKGWMILWTTYGTHLREEYFNEPLKFRPSRFEEDGRVTPYTFIPFGGGARTCPGWEFSKTEILLFIHHFVRTFSSYLPVDSNEKISADPFPPLPANGFSIKLSADPFPPLPANGFSIKLFPRSQSN", "modifications": "not fully specified; (1)..(507) “Xaa” equals any peptide"}, "B6": {"name": "clone F56: Taxus cuspidata cytochrome P450 oxygenase, full-length clone, SEQ ID NO: 49 (nt) / 62 (aa) (protein, listed as Taxus cuspidata)", "chain": "MDTLIQIQSSPDFLSFTLTAFLGVVVLLIFRYKHRSALKLPPGNLGLPFIGETITFASQPPQKFLNERGKKFGPVFKTSLIGHPTVVLCGSSGNRFLLSNEEKLVRMSLPNSYMKLLGQDSLLGKTGQEHRIVRTALGRFLGPQELQNHVAKMSSDIQHHINQKWKGNDEVKVLPLIRNLVFSIATSLFFGINDEHQQERLHLLLETIVMGAVCIPLAFPGSGFRKALQARSELDGILISLMKIRRSDLRSGAASSNQDLLSVLLTFKDERGNPLTDKEILDNFSVLLHGLYDTTISPLTLIFKLMSSNTECYENVVQEQLEILSHREKGEEIGWKDLKSMKYTWQAIQETLRMFPPVYGNFRKALTDIHYDGYTIPKGWRVLCSPFTTHSNEEYFNEPDEFRPSRFEGQGKNVPSYTFIPFGGGLRICPGWEFAKTEMLLFIHYFVKTFSSYVPVDPNEKISADPLASFPVNGFSVKLFPRS"}}}
{"assay": "not given", "assay_type": "binding, Saccharomyces cerevisiae", "conditions": "not given", "from_the_text": "CO-sensor of the 19 full-length cytochrome P450 clones from Taxus, thus far obtained, ten have yielded detectable CO-difference spectra (Table 2). […] These alternative expression systems for cytochrome P450 genes include the yeast Pichia pastoris, for which expression vectors and hosts are commercially available (Invitrogen, Carlsbad, Calif.), as well as established E. coli and baculovirus-insect cell systems for which general expression procedures have been described (Barnes, Methods Enzymol. 272:1–14, 1996;Gonzalez et al., Methods Enzymol. 206:93–99, 1991;Lee et al., Methods Enzymol. 272:86–98, 1996;and Lupien et al., Arch. Biochem. Biophys. 368:181–192, 1999).\nAppropriate restriction sites were introduced by standard PCR methods (Innis et al., PCR Protocols: A Guide to Methods and Applications, Academic Press, San Diego, Calif., 1990) immediately upstream of the ATG start codon and downstream of the stop codon of all full-length cytochrome P450 clones. These modified amplicons were gel-purified, digested with the corresponding restriction enzymes, and then ligated into the expression vector pYeDP60. The vector/insert junctions were sequenced to ensure that no errors had been introduced by the PCR construction. Verified clones were transformed into yeast using the lithium acetate method (Ito et al., J. Bacteriol. 153:163–168, 1983). Isolated transformants were grown to stationary phase in SGI medium (Pompon et al., Methods Enzymol. 272:51–64, 1996), and used as inocula for a large-scale expression culture grown in YPL medium (Pompon et al., Methods Enzymol. 272:51–64, 1996). Approximately 24 hours after induction of cytochrome P450 expression with galactose (to 10% final concentration), a portion of the yeast cell culture was harvested by centrifugation. One-half of the culture was treated with carbon monoxide, and the cytochrome P450 CO-difference spectrum was recorded directly (using untreated cells as a control) by spectrophotometry (Omura and Sato, J. Biol. Chem. 239:2370–2378, 1964)."}
{"molecule": "B1", "CO diff. spec.": "+"}
{"molecule": "B2", "CO diff. spec.": "−"}
{"molecule": "B3", "CO diff. spec.": "−"}
{"molecule": "B4", "CO diff. spec.": "−"}
{"molecule": "B5", "CO diff. spec.": "−"}
{"molecule": "B6", "CO diff. spec.": "−"}
{"assay": "In vivo assay of yeast cells expressing recombinant oxygenases, radio-HPLC, substrate taxadiene", "assay_type": "cell-based, Saccharomyces cerevisiae", "conditions": "assayed with Taxadiene; graded symbols, key not given", "from_the_text": "(§1) Transformed yeast cells that fimctionally express a recombinant cytochrome P450 gene from Taxus (by CO-difference spectrum) can be tested in vivo for their ability to oxygenate (hydroxylate or epoxidize) taxoid substrates fed exogenously to the cells, thereby eliminating the need for microsome isolation for preliminary in vitro assays.\n(§2) Accordingly, several clones of the available full-length clones were expressed in induced yeast host cells.\n(§3) Isolated transformants for each full-length cytochrome P450 clone shown to express a functional enzyme by CO-difference spectrum (ten clones) were grown to stationary phase in 2 mL SGI medium at 30° C. and used to inoculate a 10-mL expression culture (in YPL medium). Approximately 8 hours after induction, cells were harvested by centrifugation (10 minutes at 1500 rpm), and the pellet was resuspended in 2 mL of fresh YPL medium.\n(§4) To eliminate additional complication and uncertainty associated with microsome isolations for in vitro assays, 10^6 dpm of [20-^3H3]taxa-4(5),11(12)-diene (16 Ci/mol) or [20-^3H2]taxa-4(20),11(12)-diene-5-α-ol (4.0 Ci/mol), or other taxoid substrate were added directly to the cell suspension to assay conversion in vivo. After 12 hours of incubation at 30° C. with agitation (250 rpm), the mixture was treated for 15 minutes in a sonication bath and extracted 3 times with 2 mL diethyl ether to insure isolation of the biosynthetic products. These ether extracts, containing residual substrate and derived product(s), were concentrated to dryness, resuspended in 200 μL of CH3CN, and filtered. These samples were analyzed by radio-HPLC (Hefner et al., Chemistry and Biology 3:479–489, 1996) using a 4.6 mm i.d.×250 mm column of Econosil C18, 5 μ (Alltech, Deerfield, Ill.) with a gradient of CH3CN in H2O from 0% to 85% (10 minutes at 1 mL/minute), then to 100% CH3CN over 40 minutes."}
{"molecule": "B1", "product identified HPLC peak": "No"}
{"molecule": "B2", "product identified HPLC peak": "No"}
{"molecule": "B3", "product identified HPLC peak": "No"}
{"molecule": "B4", "product identified HPLC peak": "No"}
{"molecule": "B5", "product identified HPLC peak": "No"}
{"molecule": "B6", "product identified HPLC peak": "No"}
{"assay": "In vivo assay of yeast cells expressing recombinant oxygenases, radio-HPLC, substrate taxadien-5α-ol", "assay_type": "cell-based, Saccharomyces cerevisiae", "conditions": "assayed with Taxadien5αol; graded symbols, key not given", "from_the_text": "as §1, §2, §3, §4"}
{"molecule": "B1", "product identified HPLC peak": "No"}
{"molecule": "B2", "product identified HPLC peak": "No"}
{"molecule": "B3", "product identified HPLC peak": "No"}
{"molecule": "B4", "product identified HPLC peak": "No"}
{"molecule": "B5", "product identified HPLC peak": "No"}
{"molecule": "B6", "product identified HPLC peak": "No"}
